Measurements taken from patent US20240309103A1 (Regeneron, published 2024).

Tests used:
[1] = molecular target: T1, hNPR1-mFc:hANP or hNPR1-hFc:hANP complex (human, UniProt P01160 124-151); assay: SPR, mAb captured, 25C
T1 construct: also called human NPR1 complexed to ANP
Method: (§1) Equilibrium dissociation constant (KD) for different NPR1 reagents binding to purified anti-NPR1 monoclonal antibodies (mAbs) were determined using a real-time surface plasmon resonance based Biacore 4000 biosensor. All binding studies were performed in 10 mM HEPES, 150 mM NaCl, 3 mM EDTA, and 0.05% v/v Surfactant Tween-20, pH 7.4 (HBS-ET) running buffer at 25° C. and 37° C. The Biacore CM5 sensor chip surface was first derivatized by amine coupling with either mouse anti-human Fc specific mAb (GE Healthcare, #BR100839) or goat anti-human Fcy specific polyclonal antibody (Jackson ImmunoResearch Laboratories, #BR-1008-39) to capture anti-NPR1 mAbs.

hNPR1-mFc:hBNP complex [2] = molecular target: T2, hNPR1-mFc:hBNP complex (human, UniProt P16860 103-134); assay: SPR, mAb captured, 25C
T2 construct: also called human NPR1 complexed to BNP
Method: as §1

mfNPR1-mFc [3] = molecular target: T3, mfNPR1-mFc (monkey); assay: SPR, mAb captured, 25C
T3 construct: also called dimeric monkey NPR1
T3 chain: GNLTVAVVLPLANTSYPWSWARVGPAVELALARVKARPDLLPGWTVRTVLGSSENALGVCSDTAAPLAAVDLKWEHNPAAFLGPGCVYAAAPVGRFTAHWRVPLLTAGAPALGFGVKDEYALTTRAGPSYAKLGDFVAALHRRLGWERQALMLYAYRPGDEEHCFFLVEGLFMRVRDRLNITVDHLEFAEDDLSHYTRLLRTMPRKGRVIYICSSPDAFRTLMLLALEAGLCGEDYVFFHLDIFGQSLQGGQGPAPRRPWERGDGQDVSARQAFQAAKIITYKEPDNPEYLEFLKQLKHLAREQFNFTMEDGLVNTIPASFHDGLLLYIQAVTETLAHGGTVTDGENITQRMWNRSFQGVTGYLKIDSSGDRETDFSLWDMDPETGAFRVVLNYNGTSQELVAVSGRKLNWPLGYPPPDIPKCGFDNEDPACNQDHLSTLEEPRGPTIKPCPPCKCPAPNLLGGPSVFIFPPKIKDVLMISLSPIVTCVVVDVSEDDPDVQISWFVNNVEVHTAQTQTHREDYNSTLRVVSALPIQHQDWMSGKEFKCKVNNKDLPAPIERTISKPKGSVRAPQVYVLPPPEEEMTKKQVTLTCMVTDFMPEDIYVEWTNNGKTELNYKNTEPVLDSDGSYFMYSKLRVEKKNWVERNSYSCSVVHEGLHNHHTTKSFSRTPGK
Method: as §1

mfNPR1-mFc:hANP complex [4] = molecular target: T4, mfNPR1-mFc:hANP complex (monkey; human, UniProt P01160 124-151); assay: SPR, mAb captured, 25C
T4 construct: also called monkey NPR1 complexed to ANP
Method: as §1

mfNPR1-mFc:hBNP complex = molecular target: T5, mfNPR1-mFc:hBNP complex (monkey; human, UniProt P16860 103-134); assay: SPR, mAb captured, 25C
T5 construct: also called monkey NPR1 complexed to BNP
Method: as §1

[5] = molecular target: T1, hNPR1-mFc:hANP or hNPR1-hFc:hANP complex; assay: SPR, mAb captured, 37C
Method: as §1

hNPR1-mFc:hBNP complex [6] = molecular target: T2, hNPR1-mFc:hBNP complex; assay: SPR, mAb captured, 37C
Method: as §1

mfNPR1-mFc [7] = molecular target: T3, mfNPR1-mFc; assay: SPR, mAb captured, 37C
Method: as §1

mfNPR1-mFc:hANP complex [8] = molecular target: T4, mfNPR1-mFc:hANP complex; assay: SPR, mAb captured, 37C
Method: as §1

B1: mAb22809 (antibody, human IgG4, V domains shown)
VH: QLQLRESGPGLVKPSETLSLTCTVSGGSINDNSFFWDWIRQTPGRGLEWIGNIFFDGNTYYTPSLKSRVIISVDMSQNQFSLRLTSVTAADTALYYCARHKRSMTAWGFFDYWGQGTLVTVSS
VL: DIQMTQSPSSLSASVGDRVTITCRASKRINTYLNWYQQKPGKAPKVLIYSASNLQSGVPSRFSGSGSGTDFTLTINSLQPEDFATYFCQQSFSAPPITFGQGTRLEIK
- 100 nM Ag Bound (RU) [1]: 53 RU
- Kd [1]: 4.94 nM
- koff [1]: 0.000193 s⁻¹
- kon [1]: 39200 M⁻¹ s⁻¹
- t½ [1]: 0.995 h
- 100 nM Ag Bound (RU) (hNPR1-mFc:hBNP complex [2]): 51 RU
- Kd (hNPR1-mFc:hBNP complex [2]): 6.72 nM
- koff (hNPR1-mFc:hBNP complex [2]): 0.000221 s⁻¹
- kon (hNPR1-mFc:hBNP complex [2]): 32800 M⁻¹ s⁻¹
- t½ (hNPR1-mFc:hBNP complex [2]): 0.873 h
- 100 nM Ag Bound (RU) (mfNPR1-mFc [3]): 6 RU
- binding result (mfNPR1-mFc [3]): no binding (tested: 100 nM)
- 100 nM Ag Bound (RU) (mfNPR1-mFc:hANP complex [4]): 86 RU
- Kd (mfNPR1-mFc:hANP complex [4]): 3.88 nM
- koff (mfNPR1-mFc:hANP complex [4]): 0.000173 s⁻¹
- kon (mfNPR1-mFc:hANP complex [4]): 44700 M⁻¹ s⁻¹
- t½ (mfNPR1-mFc:hANP complex [4]): 1.11 h
- 100 nM Ag Bound (RU) (mfNPR1-mFc:hBNP complex): 80 RU
- Kd (mfNPR1-mFc:hBNP complex): 3.85 nM
- koff (mfNPR1-mFc:hBNP complex): 0.00016 s⁻¹
- kon (mfNPR1-mFc:hBNP complex): 41400 M⁻¹ s⁻¹
- t½ (mfNPR1-mFc:hBNP complex): 1.21 h
- 100 nM Ag Bound (RU) [5]: 68 RU
- Kd [5]: 3.29 nM
- koff [5]: 0.000166 s⁻¹
- kon [5]: 50400 M⁻¹ s⁻¹
- t½ [5]: 1.16 h
- 100 nM Ag Bound (RU) (hNPR1-mFc:hBNP complex [6]): 63 RU
- Kd (hNPR1-mFc:hBNP complex [6]): 3.56 nM
- koff (hNPR1-mFc:hBNP complex [6]): 0.000166 s⁻¹
- kon (hNPR1-mFc:hBNP complex [6]): 46500 M⁻¹ s⁻¹
- t½ (hNPR1-mFc:hBNP complex [6]): 1.16 h
- 100 nM Ag Bound (RU) (mfNPR1-mFc [7]): 8 RU
- 100 nM Ag Bound (RU) (mfNPR1-mFc:hANP complex [8]): 106 RU
- Kd (mfNPR1-mFc:hANP complex [8]): 3.7 nM
- koff (mfNPR1-mFc:hANP complex [8]): 0.000205 s⁻¹
- kon (mfNPR1-mFc:hANP complex [8]): 55500 M⁻¹ s⁻¹
- t½ (mfNPR1-mFc:hANP complex [8]): 0.937 h

B2: mAb22035 (antibody, human IgG4, V domains shown)
VH: EVQLVESGGGLVQPGRSLRLSCAASGFTFDDYAMHWVRQAPGKGLEWVSGISWNSGTIGYADSVKGRFTMSRDNAKNSLYLQMNSLRPEDTALYYCAKDMGVSLALWGAFDIWGQGTMVTVSS
VL: DIQMTQSPSSLSASVGDKVTITCRASQNIRTYLNWYQQKPGKAPKVLISTASSLQSGVPSRFSGSGSGTDFTLTISSLQPEDFAVFYCQQSFGIPRTFGQGTKVEIK
- 100 nM Ag Bound (RU) [1]: 186 RU
- Kd [1]: 0.434 nM
- koff [1]: 7.78e-05 s⁻¹
- kon [1]: 179000 M⁻¹ s⁻¹
- t½ [1]: 2.47 h
- 100 nM Ag Bound (RU) (hNPR1-mFc:hBNP complex [2]): 194 RU
- Kd (hNPR1-mFc:hBNP complex [2]): 0.508 nM
- koff (hNPR1-mFc:hBNP complex [2]): 8.7e-05 s⁻¹
- kon (hNPR1-mFc:hBNP complex [2]): 171000 M⁻¹ s⁻¹
- t½ (hNPR1-mFc:hBNP complex [2]): 2.21 h
- 100 nM Ag Bound (RU) (mfNPR1-mFc [3]): 231 RU
- Kd (mfNPR1-mFc [3]): 0.229 nM
- koff (mfNPR1-mFc [3]): 5.57e-05 s⁻¹
- kon (mfNPR1-mFc [3]): 244000 M⁻¹ s⁻¹
- t½ (mfNPR1-mFc [3]): 3.45 h
- 100 nM Ag Bound (RU) (mfNPR1-mFc:hANP complex [4]): 227 RU
- Kd (mfNPR1-mFc:hANP complex [4]): 0.246 nM
- koff (mfNPR1-mFc:hANP complex [4]): 4.66e-05 s⁻¹
- kon (mfNPR1-mFc:hANP complex [4]): 189000 M⁻¹ s⁻¹
- t½ (mfNPR1-mFc:hANP complex [4]): 4.13 h
- 100 nM Ag Bound (RU) (mfNPR1-mFc:hBNP complex): 231 RU
- Kd (mfNPR1-mFc:hBNP complex): 0.3 nM
- koff (mfNPR1-mFc:hBNP complex): 6.13e-05 s⁻¹
- kon (mfNPR1-mFc:hBNP complex): 205000 M⁻¹ s⁻¹
- t½ (mfNPR1-mFc:hBNP complex): 3.14 h
- 100 nM Ag Bound (RU) [5]: 237 RU
- Kd [5]: 0.508 nM
- koff [5]: 0.000114 s⁻¹
- kon [5]: 225000 M⁻¹ s⁻¹
- t½ [5]: 1.68 h
- 100 nM Ag Bound (RU) (hNPR1-mFc:hBNP complex [6]): 243 RU
- Kd (hNPR1-mFc:hBNP complex [6]): 0.553 nM
- koff (hNPR1-mFc:hBNP complex [6]): 0.000128 s⁻¹
- kon (hNPR1-mFc:hBNP complex [6]): 232000 M⁻¹ s⁻¹
- t½ (hNPR1-mFc:hBNP complex [6]): 1.5 h
- 100 nM Ag Bound (RU) (mfNPR1-mFc [7]): 291 RU
- Kd (mfNPR1-mFc [7]): 0.184 nM
- koff (mfNPR1-mFc [7]): 8.44e-05 s⁻¹
- kon (mfNPR1-mFc [7]): 459000 M⁻¹ s⁻¹
- t½ (mfNPR1-mFc [7]): 2.28 h
- 100 nM Ag Bound (RU) (mfNPR1-mFc:hANP complex [8]): 283 RU
- Kd (mfNPR1-mFc:hANP complex [8]): 0.302 nM
- koff (mfNPR1-mFc:hANP complex [8]): 7.7e-05 s⁻¹
- kon (mfNPR1-mFc:hANP complex [8]): 255000 M⁻¹ s⁻¹
- t½ (mfNPR1-mFc:hANP complex [8]): 2.5 h

B3: mAb22033 (antibody, human IgG4, V domains shown)
VH: QVQLVQSGAEVKKPGASVTVSCKASGYTFTDYYMHWVRQAPGQGLEWMGWIKPNSGGTNSAQRFQGRITMTWDTSISTAYMELSRLRSDDTAVYYCSRGGPVMNYYYYYGMDVWGQGTTVTVSS
VL: NIQMTQSPSSLSASVGDRVTITCRASQSIDSYLNWYQQKPGKAPKLLIYVASSLQSGVPSRFSGSGSGKDFTLTISSLQPEDFATYYCQQSYSIPTFGQGTRLEIK
- 100 nM Ag Bound (RU) [1]: 84 RU
- Kd [1]: 1.43 nM
- koff [1]: 8.6e-05 s⁻¹
- kon [1]: 60300 M⁻¹ s⁻¹
- t½ [1]: 2.24 h
- 100 nM Ag Bound (RU) (hNPR1-mFc:hBNP complex [2]): 85 RU
- Kd (hNPR1-mFc:hBNP complex [2]): 1.23 nM
- koff (hNPR1-mFc:hBNP complex [2]): 6.67e-05 s⁻¹
- kon (hNPR1-mFc:hBNP complex [2]): 54300 M⁻¹ s⁻¹
- t½ (hNPR1-mFc:hBNP complex [2]): 2.89 h
- 100 nM Ag Bound (RU) (mfNPR1-mFc [3]): 96 RU
- Kd (mfNPR1-mFc [3]): 0.938 nM
- koff (mfNPR1-mFc [3]): 4.85e-05 s⁻¹
- kon (mfNPR1-mFc [3]): 51700 M⁻¹ s⁻¹
- t½ (mfNPR1-mFc [3]): 3.97 h
- 100 nM Ag Bound (RU) (mfNPR1-mFc:hANP complex [4]): 133 RU
- Kd (mfNPR1-mFc:hANP complex [4]): 0.815 nM
- koff (mfNPR1-mFc:hANP complex [4]): 5.36e-05 s⁻¹
- kon (mfNPR1-mFc:hANP complex [4]): 65800 M⁻¹ s⁻¹
- t½ (mfNPR1-mFc:hANP complex [4]): 3.59 h
- 100 nM Ag Bound (RU) (mfNPR1-mFc:hBNP complex): 132 RU
- Kd (mfNPR1-mFc:hBNP complex): 0.781 nM
- koff (mfNPR1-mFc:hBNP complex): 5.15e-05 s⁻¹
- kon (mfNPR1-mFc:hBNP complex): 65900 M⁻¹ s⁻¹
- t½ (mfNPR1-mFc:hBNP complex): 3.74 h
- 100 nM Ag Bound (RU) [5]: 108 RU
- Kd [5]: 1.69 nM
- koff [5]: 9.8e-05 s⁻¹
- kon [5]: 57900 M⁻¹ s⁻¹
- t½ [5]: 1.97 h
- 100 nM Ag Bound (RU) (hNPR1-mFc:hBNP complex [6]): 108 RU
- Kd (hNPR1-mFc:hBNP complex [6]): 1.79 nM
- koff (hNPR1-mFc:hBNP complex [6]): 9.6e-05 s⁻¹
- kon (hNPR1-mFc:hBNP complex [6]): 53700 M⁻¹ s⁻¹
- t½ (hNPR1-mFc:hBNP complex [6]): 2 h
- 100 nM Ag Bound (RU) (mfNPR1-mFc [7]): 126 RU
- Kd (mfNPR1-mFc [7]): 2.06 nM
- koff (mfNPR1-mFc [7]): 9.9e-05 s⁻¹
- kon (mfNPR1-mFc [7]): 48200 M⁻¹ s⁻¹
- t½ (mfNPR1-mFc [7]): 1.95 h
- 100 nM Ag Bound (RU) (mfNPR1-mFc:hANP complex [8]): 169 RU
- Kd (mfNPR1-mFc:hANP complex [8]): 1.31 nM
- koff (mfNPR1-mFc:hANP complex [8]): 8.9e-05 s⁻¹
- kon (mfNPR1-mFc:hANP complex [8]): 68000 M⁻¹ s⁻¹
- t½ (mfNPR1-mFc:hANP complex [8]): 2.16 h
